Measurements taken from FireProtDB (doi:10.1021/bi9707180).

B1: Guanyl-specific ribonuclease T1, P00651 (parent)
chain: MMYSKLLTLTTLLLPTALALPSLVERACDYTCGSNCYSSSDVSTAQAAGYQLHEDGETVGSNSYPHKYNNYEGFDFSVSSPYYEWPILSSGDVYSGGSPGADRVVFNENNQLAGVITHTGASGNNFVECT

Variants of: B1
Details: Aspergillus oryzae (strain ATCC 42149 / RIB 40), 0 °C, Urea, CD, reversible: yes, structure 1RN1, whole UniProt chain shown

Variant	ddG of mutation (higher = less stable) (pH 2.5, glycine 30 mM)	denaturant m value (pH 2.5, glycine 30 mM)	denaturant midpoint (higher = more stable) (pH 2.5, glycine 30 mM)	ddG of mutation (higher = less stable) (pH 7, MOPS 30 mM)	denaturant m value (pH 7, MOPS 30 mM)	denaturant midpoint (higher = more stable) (pH 7, MOPS 30 mM)
A47L	0.13 kcal/mol	1.64 kcal/mol/M	2.7 M			
A47S	0.49 kcal/mol	1.67 kcal/mol/M	2.48 M	0.4 kcal/mol	1.22 kcal/mol/M	3.99 M
A47T	0.57 kcal/mol	1.6 kcal/mol/M	2.43 M			
A47I	0.44 kcal/mol	1.57 kcal/mol/M	2.51 M			
A47H	0.56 kcal/mol	1.79 kcal/mol/M	2.44 M	0.17 kcal/mol	1.27 kcal/mol/M	4.18 M
A47D	-0.33 kcal/mol	1.59 kcal/mol/M	2.98 M	0.71 kcal/mol	1.24 kcal/mol/M	3.73 M
A47C	0.74 kcal/mol	1.56 kcal/mol/M	2.33 M			
A47Q				0.4 kcal/mol	1.12 kcal/mol/M	3.99 M
A47M	0.15 kcal/mol	1.6 kcal/mol/M	2.69 M			
A47F	0.57 kcal/mol	1.69 kcal/mol/M	2.43 M			
A47K	0.51 kcal/mol	1.7 kcal/mol/M	2.47 M			
A47R	0.41 kcal/mol	1.65 kcal/mol/M	2.53 M			
A47W	0.3 kcal/mol	1.56 kcal/mol/M	2.6 M			
A47V	0.66 kcal/mol	1.77 kcal/mol/M	2.38 M			
A47Y	0.39 kcal/mol	1.69 kcal/mol/M	2.54 M			
A47G	0.9 kcal/mol	1.71 kcal/mol/M	2.23 M			
A47E	-0.05 kcal/mol	1.52 kcal/mol/M	2.81 M	0.69 kcal/mol	1.14 kcal/mol/M	3.75 M
A47N	-0.34 kcal/mol	1.72 kcal/mol/M	2.99 M			
